Test: soluble fraction after stress (log2 fold change); higher = more stays soluble; pooled small domains, quantitative proteomics
Conditions: stress: 75 degC
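Note: 20 min heating vs room temperature control held 20 min.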

Sequence | soluble fraction (log2)
HMDAIDQDGNHMTFKRWGEQLQEAFQALEAYDTDKAKTILNELIKFPIDSDLNNALKGILSNIDEMMA | -0.914
HMDAINITTYKGQITLTGTKTGTLVGIYNTAGMLVKSMMSKGEKLYFDNLPSGVYIIKVGEEEPRKVQVI | -2.16
HMDAKIEYTMSDLIENRLINSDDASMRREKLSEILKIGYGNGKKTLHKLNSFGITREEFEEAMKEVNSH | 0.0731
HMDAKIKDYADAYAKMDPQQAASLFNNMTTGSLDLVAKILENIPANKRAAILEKMDVNAAAQVTEKMR | -0.0156
HMDAKSRFQEWVQAETGITPTYRIIGDSGPDHAKTFIAQVLLGERVVGEGVGSSKRAAEQAAAQAALAAM | -0.0803
HMDAMMQRLERLKELASSADGSKDYLILGPLRRDLAKLMALEDPKLRQGAEELDRKILAILS | -0.477
HMDAPHPSVVQVYFESRDRSWTYYNDRFDLHEGDLVYVEGKLEGVRGRVVEVSYNFRIKLADYKRVIAVA | -3.29
HMDASSAVQFGSLLRDARRRQGLSQAELGGDKYSGSYISHLESGRRVATPEVIEFLSRRLGVSPLEWGVS | -0.0146
HMDASSTGFLGKHVQIVGLVSQPHLNGRRGVASRFDSNRRRYLVRLDEIDGHAEVVAFRPDNLVLSNLL | -0.627
HMDASVTIEQVERMVQANVSDDVIISQLQGRGAAQNLSTDDIINLTQKGISAEVIKAYQSAG | 0.111
HMDAVLMEYDRLLALELTEDPDVYQDLLDKVREQSLGADGRVTDKYREKFDAVATRFDDYEDNYQW | -0.113
HMDAVQAGKRVLIVDDLIATGGTAKAATDLIEKAGGTVVGFSFVMRLDGLDGLDKLDGKPSSSLIAMP | 0.193
HMDAYMGEAKDEETFAEEYLNDSGLLNEIPESVARYFDIVAYARDLLIGDFSLHDGHVFNMT | 0.358
HMDDAFLNKEMLKQALENLNEREKKLIYLRFYEGLTQKEIADRLSLSQMHVSRLLNESLNKLRRKI | -0.44
HMDDATDLPYQEFRTQVSDGQVKIAQFNNNTGKITFESISGDKFKTSGPLELSSDDERLFLENIEDFKFFT | 0.0939
HMDDATDVPYQEFRTQVTSGQVEIAQFNNNTGKISFQSTSGEKFETSGPLELSSDDERLFLENIEDFKFFT | 0.416
HMDDATIKVNIAAKFLNAGNNLFVDIDTTVLEGRVLLTGLVDTQEVRIDAVRLVWEVEGIREVINEIEIG | -5.19
HMDDATTQLADRLLDLRRKAGYSQEQLADLLGVSRQAISKWEGAQGRPEVDNVVKLAQIYRVSTDFILTGS | -0.698
HMDDAVSHPDAGHIVTVTKVSADGTAEVMYRGASWRAKTADGSPLTAGSARIVRVDGAALVVEP | 0.0931

Sequence | soluble fraction (log2)
HMDDDDPDQEIAQYYEKLRAMNPDEETKQKLSDEINKLSKMMYSSQEAMVSRNYLDTVFSLPWHQF | -0.146
HMDDEELDALKGIPANEYTQEQIKQISEVFHTLQKNEVKDWLNSLQLRNIELPFELRNEVFSQ | 0.211
HMDDFPLKRGSKGNRVTLLQNALVKKYGAGILPKYGVDGMFGKEVEAALVHAKIPTTINEANYTKIV | -0.0514
HMDDFSETLLQYIKEKGGHISLNDKTDAGVIYETFGVSKKTFKKAVGDLYKKRLIVLEDTGIRL | -0.501
HMDDHLSFLAARLPDGASFDTDFDALGIDSFGMIALRAEVEERLGEQIADSDWTKVERPSEILAMLERK | -0.204
HMDDLATAYKAMGVDASISDKDLKRAYRKLMSQHHPDKMIAKGVPADMVAMATEKTQEIQAAYDLIERSR | 0.203
HMDDLIIQIELKQEGLEITGLKVLLKEDSVIDEQVKQTIRRKIERFLVNLYGNPNVYVSKFSMGI | -0.296
HMDDLTTASIKQQLKALIDEENKNKPLSDQKLTDALKAQGIDISRRTVAKYREAMNIPGSSKRKRF | -0.0771
HMDDMVLEIGPGIGTMTQYLAEAAGKVVAVEIDRNLLPILQETLADYDNVKVIHADVLSLDLEKLVQEE | -0.0859
HMDDPDALITDSQLKAIHVLLGKLKIDDNLKHAYIADVLQLKDIPETLKTLTKHQGSTIIERLNLLIKDA | -0.0192
HMDDPLSQLTPREREVLELMASGASNQGIADALVITVRAVEKYVSSIFGKLGLPSTGSESRRVLAVLTFLR | -0.178
HMDDPYAGLRQRAYLFLRERDGAVPEEELIEHVFGSSGNPALWRPLLRQVLGADDRLDLRADGYWALRG | -0.187
HMDDSPTARALRTLDLIHNRPGITAAELADRLGVTERAVRRYVLTLRDAGVPVLGTPGRYGGYQVGK | -0.818
HMDDSVTFSEFVRMVDSGQVESVRITGNEVTGSDSTGNTFRTFVPPQYEGLVNRLVERDVAVTAEE | 0.149
HMDDSVVFSLNAKGIRLTGAGKYGEAIALFDKAIAAKPGLSGLYFNRAEARRLSGDLPGARSDLEQALAI | -0.416
HMDDTRLELTLLGKIHNDEEINKQSHINVNIKNGVILLTGESPRREITERILTLARTFEHTRQIVNQIAT | 0.0479
HMDDVIDVYATYDKSAEGVLSNIQLFSNQKKTTPITPESGKIYIDVEGNYQFRWTGTQYATV | 0.15
HMDDYRSLRGQEKAAIFLMSLSQEQAAKIFANLDDEEIKEISQAMSSLGTVGSEIIERLFVEFAEQVSS | -1.21
HMDEARLAVASNLIRLRTDAGMTQAELGEKLNYSDKTISKWERAEAIPDAFVLKQIGELFHVSVDFLLRTH | -2.28

Reference: the domain aggregation screens of Martell et al. (2025)
